One data set addresses T1, CHMP3_S75C (human, UniProt Q9Y3E7 9-183, S75C).
T1 sequence (looked up): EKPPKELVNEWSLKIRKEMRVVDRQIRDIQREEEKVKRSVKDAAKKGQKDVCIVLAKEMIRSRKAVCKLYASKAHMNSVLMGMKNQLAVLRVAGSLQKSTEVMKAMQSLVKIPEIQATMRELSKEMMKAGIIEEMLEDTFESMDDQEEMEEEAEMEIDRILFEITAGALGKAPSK
The data set can be described thus: cross-linking.

The target in another data set is T2, CHMP3_V110C (human, UniProt Q9Y3E7 9-183, V110C).
T2 sequence (looked up): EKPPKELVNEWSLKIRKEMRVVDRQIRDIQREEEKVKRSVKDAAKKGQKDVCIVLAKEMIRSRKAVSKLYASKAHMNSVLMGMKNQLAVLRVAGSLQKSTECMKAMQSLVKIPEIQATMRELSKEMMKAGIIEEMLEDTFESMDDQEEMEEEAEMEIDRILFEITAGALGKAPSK
The data set can be described thus: cross-linking.

The data set “cryo-EM structure” deals with the molecule itself. The data set can be described thus: cryo-EM structure.
The target in data set [1] is T3, CHMP3 full length (residues 1-222) (human, UniProt Q9Y3E7 1-222).
T3 sequence (looked up): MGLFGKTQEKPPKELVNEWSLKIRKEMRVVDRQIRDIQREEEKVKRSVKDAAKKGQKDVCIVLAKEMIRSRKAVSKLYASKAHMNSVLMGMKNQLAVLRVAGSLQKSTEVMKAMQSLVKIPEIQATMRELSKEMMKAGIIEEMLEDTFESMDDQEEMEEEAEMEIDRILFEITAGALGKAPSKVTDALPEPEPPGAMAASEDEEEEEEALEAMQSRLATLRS
The data set can be described thus: cryo-EM structure.

Data set [2] addresses T4, CHMP3_K112A, K119A, K132A, K136A (human, UniProt Q9Y3E7 9-183, K112A | K119A | K132A | K136A).
T4 sequence (looked up): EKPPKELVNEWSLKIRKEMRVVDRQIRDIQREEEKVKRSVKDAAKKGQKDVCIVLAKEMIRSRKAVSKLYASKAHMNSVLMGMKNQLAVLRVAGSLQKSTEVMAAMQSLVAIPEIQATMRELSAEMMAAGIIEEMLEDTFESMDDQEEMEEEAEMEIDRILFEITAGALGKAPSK
The data set can be described thus: negative staining EM of polymer.

The target of data set [3] is T3, CHMP3 full length (residues 1-222). The data set can be described thus: negative staining EM of polymer.

B1: CHMP2A_D57C (domain or fragment, human, UniProt O43633 9-161, looked up)
chain: KTPEELLRQNQRALNRAMRELDRERQKLETQEKKIIADIKKMAKQGQMCAVRIMAKDLVRTRRYVRKFVLMRANIQAVSLKIQTLKSNNSMAQAMKGVTKAMGTMNRQLKLPQIQKIMMEFERQAEIMDMKEEMMNDAIDDAMGDEEDEEESD
For the molecule B1, in the data set with CHMP3_S75C, the binding result is reported as “binds”.

B2: CHMP2A_N18C (domain or fragment, human, UniProt O43633 9-161, looked up)
chain: KTPEELLRQCQRALNRAMRELDRERQKLETQEKKIIADIKKMAKQGQMDAVRIMAKDLVRTRRYVRKFVLMRANIQAVSLKIQTLKSNNSMAQAMKGVTKAMGTMNRQLKLPQIQKIMMEFERQAEIMDMKEEMMNDAIDDAMGDEEDEEESD
As for B2, the binding result with CHMP3_V110C is given as “binds”.

B3: CHMP2AΔC (C-terminally truncated CHMP2A, residues 1-161), MBP removed (domain or fragment, human, UniProt O43633 1-161, looked up)
chain: MDLLFGRRKTPEELLRQNQRALNRAMRELDRERQKLETQEKKIIADIKKMAKQGQMDAVRIMAKDLVRTRRYVRKFVLMRANIQAVSLKIQTLKSNNSMAQAMKGVTKAMGTMNRQLKLPQIQKIMMEFERQAEIMDMKEEMMNDAIDDAMGDEEDEEESD
As for B3, the binding result (in “cryo-EM structure”; in data set [1]) was “binds” in each case.

B4: CHMP2AΔC (residues 1-161) wild type, MBP fusion as used for tube formation without membrane coating (domain or fragment, human, UniProt O43633 1-161, looked up)
chain: MDLLFGRRKTPEELLRQNQRALNRAMRELDRERQKLETQEKKIIADIKKMAKQGQMDAVRIMAKDLVRTRRYVRKFVLMRANIQAVSLKIQTLKSNNSMAQAMKGVTKAMGTMNRQLKLPQIQKIMMEFERQAEIMDMKEEMMNDAIDDAMGDEEDEEESD
For B4, the binding result in data set [2] and in data set [3] was “binds” throughout.

The values above are taken from paper doi:10.1101/2022.04.12.487901 (bioRxiv, 2022).
